One data set has as its target DrDM15 (zebrafish) (UniProt F1R0U5). The experiment in a line: EMSA. To be noted: 5' m7G cap (Vaccinia capping), EMSA: 20 mM Tris-HCl pH 8, 150 mM NaCl, 10% glycerol, 1 mM DTT, 0.5 ug tRNA, 1 ug BSA, pM RNA (95 C, snap cooled), native 7% PAGE, 0.5X TBE. A general note: In EMSA bound probe runs differently from free probe, usually more slowly.
The target of data set [1] is T1, HsDM15 (Homo sapiens, UniProt Q6PKG0).
T1 construct: gene LARP1; C-terminal DM15 region; E. coli BL21(DE3); His6-MBP tag removed with TEV protease; monomer; residues 796-941 used in simulation only
The experiment in a line: differential scanning fluorimetry (SYPRO Orange). The format is binding. The conditions noted are these: 5 uM protein, 500 uM ligand; 50 mM Tris-HCl pH 8, 100 mM NaCl, 0.6 mM DTT, 10% glycerol. Background: In DSF a fluorescence change marks the thermal transition of the protein.

Data set [2] has as its target T2, DmDM15 (Drosophila melanogaster, UniProt Q9VAW5).
T2 construct: gene larp; C-terminal DM15 region; E. coli BL21(DE3); His6-MBP tag removed with TEV protease; monomer
The data set is described as follows: differential scanning fluorimetry (SYPRO Orange). It is filed as binding. To be noted: 5 uM protein, 500 uM ligand; 50 mM Tris-HCl pH 8, 100 mM NaCl, 0.6 mM DTT, 10% glycerol.

Another data set deals with T3, DrDM15 (Danio rerio, UniProt A0A8M9P457).
T3 construct: gene larp1; C-terminal DM15 region, residues 754-904; E. coli BL21(DE3); His6-MBP tag removed with TEV protease; Gly6 linker after TEV site; monomer
The data set is described as follows: differential scanning fluorimetry (SYPRO Orange). It is filed as binding. To be noted: 5 uM protein, 500 uM ligand; 50 mM Tris-HCl pH 8, 100 mM NaCl, 0.6 mM DTT, 10% glycerol.

Data set [3] deals with DmDM15 (fruit fly, UniProt A0A0B4K7Y7 1330-1481). The data set is described as follows: EMSA; EMSA: 20 mM Tris-HCl pH 8, 150 mM NaCl, 10% glycerol, 1 mM DTT, 0.5 ug tRNA, 1 ug BSA, pM RNA (95 C, snap cooled), 0.5-1 h on ice; native 7% PAGE, 0.5X TBE. The conditions noted are these: protein: recombinant, tags: His6-MBP removed by TEV, label: 32P in cap.
Data set [4] deals with T4, HsDM15 (Homo sapiens, UniProt Q6PKG0-3 796-946). The data set is described as above. To be noted: protein: recombinant, tags: His6-MBP removed by TEV, label: 32P in cap.
Data set [5] deals with T4, HsDM15. The data set is described as follows: EMSA; stated only as picomolar affinity; EMSA: 20 mM Tris-HCl pH 8, 150 mM NaCl, 10% glycerol, 1 mM DTT, 0.5 ug tRNA, 1 ug BSA, pM RNA (95 C, snap cooled), 0.5-1 h on ice; native 7% PAGE, 0.5X TBE. The conditions noted are these: protein: recombinant; tags: His6-MBP removed by TEV; label: 32P in cap.
Where [6] appears, read: 5' end paired in one predicted fold.

Chain of DmDM15 (fruit fly, UniProt A0A0B4K7Y7 1330-1481) (A0A0B4K7Y7 entry or part of it): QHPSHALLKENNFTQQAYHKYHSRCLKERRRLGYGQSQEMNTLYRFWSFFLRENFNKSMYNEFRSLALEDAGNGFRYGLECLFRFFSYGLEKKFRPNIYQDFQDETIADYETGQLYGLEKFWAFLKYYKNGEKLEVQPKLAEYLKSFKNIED
T2 sequence (Q9VAW5 1330-1481): as the sequence (A0A0B4K7Y7 entry or part of it) above
T3 sequence (A0A8M9P457 778-928): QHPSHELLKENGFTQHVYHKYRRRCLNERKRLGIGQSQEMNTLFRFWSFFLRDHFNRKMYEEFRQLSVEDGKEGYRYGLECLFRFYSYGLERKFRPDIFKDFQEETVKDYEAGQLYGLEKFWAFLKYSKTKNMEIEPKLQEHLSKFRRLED

By Kd is commonly meant a measure of binding affinity in units of concentration. In the data set with DrDM15 (zebrafish) (0.5-1 h on …), “CCUCUUUUCCGCUUAUCUCUUUGAGAUAAAUGCAUAUUUUUU [HsRPS6_Stem, capped]” had a Kd of 7900 pM.

As to “CCUUCUCCCCGCUUAUCUCUUUGAGAUAAAUGCAUAUUUUUU [HsPABPC1_Stem, capped]”, in the data set with DrDM15 (zebrafish) (0.5-1 h on …), the Kd was found to be 6900 pM.

Consider “CCUCUUUUCCGUGGCGCCUCGGAGGCGUUCAGCUGCUUCAAG [HsRPS6 42-mer, capped]”, for which the Kd in the data set with DrDM15 (zebrafish) (0.5-1 h on …) turned out to be 10000 pM.

In the data set with DrDM15 (zebrafish) (stated only as picomolar affinity, 0.5-1 h on ice), “CUUUUGCCAUUGUCAGCCGACGAAGUGCUUUAACCCAAACUA [DmRPL30 42-mer, capped]” showed a Kd of less than 1000 pM.

For the molecule “CCUUCUCCCCGGCGGUUAGUGCUGAGAGUGCGGAGUGUGUGC [HsPABPC1 42-mer, capped]”, the dissociation constant (Kd) with DrDM15 (zebrafish) (0.5-1 h on …) came to 97000 pM.

As for `C[n+]1cn([C@@H]2O[C@H](COP(=O)(O)OP(=O)(O)OP(=O)(O)O)[C@@H](O)[C@H]2O)c2nc(N)[nH]c(=O)c21` [m^7GTP], the Tm result at HsDM15 [1], on DmDM15 [2] and at DrDM15 was “thermal stabilization of all three orthologs in the presence of a cap analog (Fig 3D)” in each case.

Take CCUUCUCCCCGGCGGUUAGUGCUGAGAGUGCGGAGUGUGUGC (structured_RNA, 5' m7G cap (Vaccinia capping)) [HsPABPC1 42-mer, capped]: the Kd with DmDM15 [3] (setting [6]) was 140 ± 0.02 nM; with HsDM15 [4] (setting [6]), 18 ± 0.06 nM.

Turning to CCUCUUUUCCGCUUAUCUCUUUGAGAUAAAUGCAUAUUUUUU (structured_RNA, 5' m7G cap (Vaccinia capping)) [HsRPS6_Stem, capped], the Kd with DmDM15 [3] (hairpin (predicted)) was 29 ± 0.06 nM; with HsDM15 [4] (hairpin (predicted)), 1.9 ± 0.05 nM.

With CCUUCUCCCCGCUUAUCUCUUUGAGAUAAAUGCAUAUUUUUU (structured_RNA, 5' m7G cap (Vaccinia capping)) [HsPABPC1_Stem, capped], the results for the Kd with DmDM15 [3] (hairpin (predicted)) and in the data set with HsDM15 [4] (hairpin (predicted)) were 6.1 ± 0.03 nM and 1.5 ± 0.04 nM, respectively.

In the case of CUUUUGCCAUUGUCAGCCGACGAAGUGCUUUAACCCAAACUA (ssRNA, 5' m7G cap (Vaccinia capping)) [DmRPL30 42-mer, capped], the Kd in the data set with HsDM15 [5] was less than 1 nM.

Take CCUCUUUUCCGUGGCGCCUCGGAGGCGUUCAGCUGCUUCAAG (structured_RNA, 5' m7G cap (Vaccinia capping)) [HsRPS6 42-mer, capped]: the values for the Kd in the data set with DmDM15 [3] (hairpin (predicted)) and with HsDM15 [4] (hairpin (predicted)) were 58 ± 0.02 nM and 3.9 ± 0.2 nM, respectively.
